According to patent US20080175935A1, “Method to Treat Skin Conditions with Narcissus Tazetta Bulb Extract” (NuSkin International, Inc., priority 2004, published 2008):

System: arNOX
Test: arNOX assay: ferricytochrome c reduction (superoxide production) in sera
Assay type: biochemical, human
Conditions: for Rate of reduction of ferricytochrome c, +Proteinase K: pooled serum
From the text: Reduction of ferric cytochrome c by superoxide was employed as a standard measure of superoxide formation (Mayo, L. A. and Cumutte, J. (1990) Meth. Enzyme. 186, 567-575. 7. Butler, J, Koppenol, W. H. and Margollash, E. (1982) J. Biol. Chem. 257, 10747).
Assays of ferric cytochrome c reduction in sera compared 53 samples from young (20 to 40 y) and 65 samples from aged (80 to 100) individuals. […]
Measurement of arNOX activity based on ferricytochrome c reduction as a measure of superoxide production were taken. The rate of reduction of ferricytochrome c was determined from the increase in absorbance at 550 nm with 540 nm as reference. This is a widely accepted method when coupled to superoxide dismutase inhibition for the measurement of superoxide generation. The assay consists of 150 μl (2 mg/ml) of oxidized ferricytochrome c solution and 150 μl serum or 40 μl buffy coats in PBSG buffer (8.06 g NaCl, 0.2 g KCl, 0.18 g Na2HPO4, 0.26 g KH2PO4, 0.13 g CaCl2, 0.1 g MgCl2, 1.35 g glucose dissolved in 1000 ml deionized water, adjusted to pH 7.4, filtered and stored at 4° C.). Rates were determined using a SLM Aminco DW-2000 spectrophotometer (Milton Roy, Rochester, N.Y., USA) in the dual wave length mode of operation with continuous measurements over 1 min every 1.5 min. After 45 min, test compound was added and the reaction was continued for 45 min. A millimolar extinction coefficient of 19.1 cm^−1 was used for reduced ferricytochrome c. (D. M. Morré, F. Guo and D. J. Morré, 2003, Mol. Cell. Biochem. 254: […]).

B1: Proteinase K: protease used to digest sera (protein, UniProt P06873 106-384, looked up)
Proteinase K: AAQTNAPWGLARISSTSPGTSTYYYDESAGQGSCVYVIDTGIEASHPEFEGRAQMVKTYYYSSRDGNGHGTHCAGTVGSRTYGVAKKTQLFGVKVLDDNGSGQYSTIIAGMDFVASDKNNRNCPKGVVASLSLGGGYSSSVNSAAARLQSSGVMVAVAAGNNNADARNYSPASEPSVCTVGASDRYDRRSSFSNYGSVLDIFGPGTSILSTWIGGSTRSISGTSMATPHVAGLAAYLMTLGKTTAASACRYIADTANKGDLSNIPFGTVNLLAYNNYQA
Rate of reduction of ferricytochrome c, +Proteinase K (35-45 males): 0.27 ± 0.16 nmoles min^−1 mi serum^−1
Rate of reduction of ferricytochrome c, +Proteinase K (75-85 females): 1.0 ± 0.18 nmoles min^−1 mi serum^−1
Rate of reduction of ferricytochrome c, +Proteinase K (75-85 males): 0.72 ± 0.14 nmoles min^−1 mi serum^−1
Rate of reduction of ferricytochrome c, +Proteinase K (<35 y females): 0.26 ± 0.17 nmoles min^−1 mi serum^−1
Rate of reduction of ferricytochrome c, +Proteinase K (>90 females): 0.94 ± 0.24 nmoles min^−1 mi serum^−1
change in the rate of arNOX following proteinase K digestion (sera): no significant decrease
Superoxide production (reduction of ferricytochrome c), without superoxide dismutase (sera of aged (80-98 y) individuals, after proteinase K, n = 10): 0.6 ± 0.2 Nmoles/min/mi/sera
